# Data taken from the RNAGym collection of RNA variant scans (doi:10.7554/elife.90254).
# B1: LINE1-full (parent)
# chain: UACGUAGGUGGUUUUCCCCUGAUAGUGCUAAGGGGGCCUGGAAGUUUGGACUGGGCAGAGCUCAACACAGCGUGGCAAAGUGGCUGUGGCUAGACUGCCUCUCUGGAUUCCUCGUCACUCAGCAGGGCAUCUCUGAGAGAAAUGCC
# Variants of: B1
# Assay: self-cleavage, relative activity (ratio to wild type); higher = more cleavage; in vitro, sequencing; the parent is a self-cleaving ribozyme
row,Variant,self-cleavage
1,UACGUAGGUGGUUUUCCCCUGAUAGUGCUAAGGGGGCAUGGAAGUUUGGACUGGGCAGAGCUCAACACAGCGUGGCAAAGUGGCUGUGGCUAGACUGCCUCUCUGGAUUCCUCGUCACUCAGCAGGGCAUCUCUGGGAGAAAUGCC [C38A A136G],0.7
2,UACGUAGGUGGUUUUCCCCUGAUAGUGCUAAGGGGGCAUGGAAGUUUGGACUGGGCAGAGCUCAACACAGCGUGGCAAAGUGGCUGUGGCUAGACUGCCUCUCUGGAUUCCUCGUCACUCAGCAGGGCAUCUCUGAGAGGAAUGCC [C38A A140G],1.28
3,UACGUAGGUGGUUUUCCCCUGAUAGUGCUAAGGGGGCAUGGAAGUUUGGACUGGGCAGAGCUCAACACAGCGUGGCAAAGUGGCUGUGGCUAGACUGCCUCUCUGGAUUCCUCGUCACUCAGCAGGGCAUCUCUGAGAGAUAUGCC [C38A A141U],1.49
4,UACGUAGGUGGUUUUCCCCUGAUAGUGCUAAGGGGGCAUGGAAGUUUGGACCGGGCAGAGCUCAACACAGCGUGGCAAAGUGGCUGUGGCUAGACUGCCUCUCUGGAUUCCUCGUCACUCAGCAGGGCAUCUCUGAGAGAAAUGCC [C38A U52C],0.99
5,UACGUAGGUGGUUUUCCCCUGAUAGUGCUAAGGGGGCAUGGAAGUUUGGACUGGGCAGAGCUCAACACAGCGUGGCAAAGUGGCUGUGGCUAGACUGCCUCUCCGGAUUCCUCGUCACUCAGCAGGGCAUCUCUGAGAGAAAUGCC [C38A U104C],0.82
6,UACGUAGGUGGUUUUCCCCUGAUAGUGCUAAGGGGGCAUGGAAGUUUGGACUGGGCAGAGCUCAACACAGCGUGGCAAAGUGGCUGUGGCUAGACUGCCUCUCUGGAUCCCUCGUCACUCAGCAGGGCAUCUCUGAGAGAAAUGCC [C38A U109C],1
7,UACGUAGGUGGUUUUCCCCUGAUAGUGCUAAGGGGGCAUGGAAGUUUGGACUGGGCAGAGCUCAACACAGCGUGGCAAAGUGGCUGUGGCUAGACUGCCUCUCUGGAUUCCUCGCCACUCAGCAGGGCAUCUCUGAGAGAAAUGCC [C38A U115C],1.14
8,UACGUAGGUGGUUUUCCCCUGAUAGUGCUAAGGGGGCAUGGAAGUUUGGACUGGGCAGAGCUCAACACAGCGUGGCAAAGUGGCUGUGGCUAGACUGCCUCUCUGGAUUCCUCGUCACUCAGCAGGGCACCUCUGAGAGAAAUGCC [C38A U130C],1.41
9,UACGUAGGUGGUUUUCCCCUGAUAGUGCUAAGGGGGCAUGGAAGUUUGGACUGGGCAGAGCUCAACACAGCGUGGCAAAGUGGCUGUGGCUAGACUGCCUCUCUGGAUUCCUCGUCACUCAGCAGGGCAUCCCUGAGAGAAAUGCC [C38A U132C],1.02
10,UACGUAGGUGGUUUUCCCCUGAUAGUGCUAAGGGGGCAUGGAAGUUUGGACUGGGCAGAGCUCAACACAGCGUGGCAAAGUGGCUGUGGCUAGACUGCCUCUCUGGAUUCCUCGUCACUCAGCAGGGCAUCUCUGAGAGAAAGGCC [C38A U143G],1.43
11,UACGUAGGUGGUUUUCCCCUGAUAGUGCUAAGGGGGCGUGGAAGUUUGGACUGGGCAGAGCUCAACACAGCGUGGCAAAGUGGCUGUGGCUAGACUGCCUCUCUGGAUUCCUCGUCACUCAGCAGGGCAUCUCUGAGUGAAAUGCC [C38G A138U],1.31
12,UACGUAGGUGGUUUUCCCCUGAUAGUGCUAAGGGGGCGUGGAAGUUUGGACAGGGCAGAGCUCAACACAGCGUGGCAAAGUGGCUGUGGCUAGACUGCCUCUCUGGAUUCCUCGUCACUCAGCAGGGCAUCUCUGAGAGAAAUGCC [C38G U52A],1.04
13,UACGUAGGUGGUUUUCCCCUGAUAGUGCUAAGGGGGCGUGGAAGUUUGGACUGGGCAGAGCUCAACACAGCGAGGCAAAGUGGCUGUGGCUAGACUGCCUCUCUGGAUUCCUCGUCACUCAGCAGGGCAUCUCUGAGAGAAAUGCC [C38G U73A],1.76
14,UACGUAGGUGGUUUUCCCCUGAUAGUGCUAAGGGGGCUUGGAGGUUUGGACUGGGCAGAGCUCAACACAGCGUGGCAAAGUGGCUGUGGCUAGACUGCCUCUCUGGAUUCCUCGUCACUCAGCAGGGCAUCUCUGAGAGAAAUGCC [C38U A43G],0.81
15,UACGUAGGUGGUUUUCCCCUGAUAGUGCUAAGGGGGCUUGGAAGUUUGGACUGGGCAGAGCUCAACACGGCGUGGCAAAGUGGCUGUGGCUAGACUGCCUCUCUGGAUUCCUCGUCACUCAGCAGGGCAUCUCUGAGAGAAAUGCC [C38U A69G],0.49
16,UACGUAGGUGGUUUUCCCCUGAUAGUGCUAAGGGGGCUUGGAAGUUUGGACUGGGCAGAGCUCAACACAGCGUGGCAAAGUGGCUGUGGCUAGACUGCCUCUCUGGAUUCCUCGUCGCUCAGCAGGGCAUCUCUGAGAGAAAUGCC [C38U A117G],2.38
17,UACGUAGGUGGUUUUCCCCUGAUAGUGCUAAGGGGGCUUGGAAGUUUGGACUGGGCAGAGCUCAACACAGCGUGGCAAAGUGGCUGUGGCUAGACUGCCUCUCUGGAUUCCUCGUCACUCAGCAGGGCAUCUCUGUGAGAAAUGCC [C38U A136U],1.08
18,UACGUAGGUGGUUUUCCCCUGAUAGUGCUAAGGGGGCUUGGAAGUUUGGACUGGGCAGAGCUCAACACAGCGUGGCAAAGUGGCUGUGGCUAGACUGCCUCUCUGGAUUCCUCGUCACUCAGCAGGGCAUCUCUGAGGGAAAUGCC [C38U A138G],0.83
19,UACGUAGGUGGUUUUCCCCUGAUAGUGCUAAGGGGGCUUGGAAGUUUGGACUGGGCAGAGCUCAACACAGCGUGGCAAAGUGGCUGUGGCUAGAUUGCCUCUCUGGAUUCCUCGUCACUCAGCAGGGCAUCUCUGAGAGAAAUGCC [C38U C95U],0.21
20,UACGUAGGUGGUUUUCCCCUGAUAGUGCUAAGGGGGCUUGGAAGUUUGGACUGGGCAGAGCUCAACACAGCGUGGCAAAGUGGCUGUGGCUAGACUGCCUCUCUGGAUUACUCGUCACUCAGCAGGGCAUCUCUGAGAGAAAUGCC [C38U C110A],1.64
